Measured values reported in patent publication US20090148907A1, “NOVEL FRUCTOFURANOSIDASE ACTIVITY FOR OBTAINING THE PREBIOTIC OLIGOSACCHARIDE 6-KESTOSE” (CONSEJO SUPERIOR DE INVESTIGACIONES CIENTIFICAS, priority 2005, published 2009).

Columns and labels:
Format in all cases: biochemical
[1] = molecular target: T1, fructofuranosidase of S. occidentalis (pure enzyme F-3) (Schwanniomyces occidentalis, UniProt P24133); assay: Transfructosidase (transglycosylation) activity of pure enzyme F-3 on sucrose, HPLC; conditions: after 144 hours at 50° C, high sucrose concentration
T1 construct: the enzyme object of the invention is extracellularly released; endogenous in cells; host or cells: Schwanniomyces occidentalis culture supernatant; concentrated (F-1), then DEAE-Sephacel at pH 7 (F-2) and at pH 5 (F-3)
T1 sequence (P24133 whole entry, looked up): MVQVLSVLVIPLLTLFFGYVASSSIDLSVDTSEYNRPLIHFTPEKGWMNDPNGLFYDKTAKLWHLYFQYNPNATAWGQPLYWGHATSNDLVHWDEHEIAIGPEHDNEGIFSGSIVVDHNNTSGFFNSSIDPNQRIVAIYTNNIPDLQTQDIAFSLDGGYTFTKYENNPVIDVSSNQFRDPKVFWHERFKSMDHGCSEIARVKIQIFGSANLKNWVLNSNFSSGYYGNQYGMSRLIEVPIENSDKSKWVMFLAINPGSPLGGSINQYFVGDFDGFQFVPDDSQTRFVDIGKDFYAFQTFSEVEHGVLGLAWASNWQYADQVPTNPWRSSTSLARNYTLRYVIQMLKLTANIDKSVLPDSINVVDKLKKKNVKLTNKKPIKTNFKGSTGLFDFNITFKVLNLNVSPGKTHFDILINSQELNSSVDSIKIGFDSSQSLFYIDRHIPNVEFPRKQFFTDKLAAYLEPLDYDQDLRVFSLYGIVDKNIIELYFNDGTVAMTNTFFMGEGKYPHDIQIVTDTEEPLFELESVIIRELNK
Experimental: The transglycosylation activity of the pure enzyme (fraction F-3) was assayed. A reaction was prepared using a high concentration of sucrose (510 g/l) and a final enzymatic activity in the reaction mixture of approximately 0.5 U/ml. […] It is seen that the profile of the obtained products is very similar in both cases, specifically the 6-kestose/1-kestose ratio that was obtained was 3.3.
After 144 hours of reaction, 42.6 g/l of FOS were obtained. The total percentage (w/w) of fructooligosaccharides was 8.4% this value being with respect to the total weight of carbohydrates in the medium.
A high concentration solution of sucrose ([…]) in 0.2 M sodium acetate buffer pH 5.6 was prepared. The fructofuranosidase was added until a final concentration in the reaction mixture of 0.5 U/ml (one unit U is the enzymatic activity corresponding to releasing a micromole of reducing sugars per minute, using 100 g/l of sucrose as substrate, in 0.2 M sodium acetate buffer pH 5.6, at 50° C.). The reaction mixture was incubated for 144 hours at 50° C., with orbital stirring at 700 rpm. Aliquots were extracted at different times, incubated for 5 minutes at 80° C. to inactivate the enzyme, diluted 1:2 (v/v) with water centrifuged for 5 minutes at 6000 rpm in an eppendorf tube with a 0.45 μm filter and analyzed by HPLC liquid chromatography. The profile of the products formed is seen in FIG. 7. Two trisaccharides were obtained: a majority trisaccharide, identified as 6-kestose, and another minority trisaccharide, identified as 1-kestose. At the final reaction time (144 h), the composition of the system was: 12.7% fructose, 14.80/glucose. 64.1% sucrose, 2.4% 1-kestose and 5.9% 6-kestose).

[2] = Fructofuranosidase activity of fractions during purification; conditions: eluted at 0.2 M of salt, DEAE-Sephacel pH 5
Experimental: The cell free fraction was obtained by centrifugation (F-0) of a culture of S. occidentalis ATCC26077 grown at 29° C. and 235 rpm. Fructofuranosidase activity was assayed in the latter, determining the glucose release on different substrates. A colorimetric assay and the standard methodology were used. The released glucose was quantified using the glucose oxidase-peroxidase coupled reaction: 0.4 ml of the solution to be determined was mixed with 0.1 ml of A:B (20:1) solution (A: 0.85 U/ml glucose oxidase, 0.40 U/ml peroxidase in sodium phosphate buffer pH 5; B: 0.6% O-dianisidine). It was incubated for 30 minutes at 37° C. and spectrophotometrically quantified at 450 nm. A standard glucose curve (0 to 100 μg/ml) was used. The fructofuranosidase activity unit is defined in μmol/ml min of glucose determined in the described conditions.
For the purification of the enzyme, 2 liters of extracellular fraction of S. occidentalis, with a fructofuranosidase activity of 0.58 U/ml, were used to begin. The following method was used:
1) Concentration of the extracellular fraction using a tangential filtration system (30 kDa fitter) followed by dialysis against 20 mM HCl-Tris pH 7 (buffer A) for 2 hours at a temperature of 4° C. […]
3) Ion exchange chromatography to pH 5. […] The fructofuranosidase activity determined as previously indicated eluted at 0.2 M of salt and was 0.33 U (F-3).

[3] = Fructofuranosidase activity at different pH and temperatures; conditions: solution of pure protein, on sucrose
Experimental: The fructofuranosidase activity was assayed at different pH and temperatures. Maximum activity levels were obtained in a pH range comprised, between 5 and 6 units at 50° C. and at a temperature of 40 and 55° C.
FIG. 3 indicates the enzymatic activity in function of the pH and of the temperature, showing the corresponding maximums. The assays were performed on sucrose using a solution of pure protein. 100% corresponds to an activity of 5.59 U/ml. FIG. 3A: fructofuranosidase activity was determined at different pHs (3-9 pH units), an assay temperature of 50° C. and sodium citrate, sodium phosphate and HCl-Tris buffer (all of them 100 mM) for the pH range of 3-4.5, 5.0-7.5 and 8.0-9.0, respectively. FIG. 3B: the temperature assay (30-70° C.) was performed in 50 mM sodium phosphate pH 5.5.

B1: F-3: purified fructofuranosidase of S. occidentalis with transfructosidase activity, SEQ. ID. NO: 1, 535 amino acids (protein, listed as Debaryomyces occidentalis)
chain: MVQVLSVLVIPLLTLFFGYVASSSIDLSVDTSEYNRPLIHFTPEKGWMNDPNGLFYDKTAKLWHLYFQYNPNATAWGQPLYWGHATSNDLVHWDEHEIAIGPEHDNEGIFSGSIVVDHNNTSGFFNSSIDPNQRIVAIYTNNIPDLQTQDIAFSLDGGYTFTKYENNPVIDVSSNQFRDPKVFWHEDSNQWIMVVLKSQEYKIQIFGSANLKNWVLNSNFSSGYYGNQYECPGLIEVPIENSDKSKWVMFLAINPGSPLGGSINQYFVGDFDGFQFVPDDSQTRFVDIGKDFYAFQTFSEVEHGVLGLAWASNWQYADQVPTNPWRSSTSLARNYTLRYVHTNAETKQLTLIQNPVLPDSINVVDKLKKKNVKLTNKKPIKTNFKGSTGLFDFNITFKVLNLNVSPGKTHFDILINSQELNSSVDSIKIGFDSSQSSFYIDRHIPNVEFPRKQFFTDKLAAYLEPLDYDQDLRVFSLYGIVDKNIIELYFNDGTVAMTNTFFMGEGKYPHDIQIVTDTEEPLFELESVIIRELNK
[1]
  Transfructosidase activity retained (in words): still maintains transfructosidase activity
[2]
  Fructofuranosidase activity: 0.33 U
[3]
  Activity corresponding to 100% in FIG. 3: 5.59 U/ml
